Results on eleven variants are retold here after IntAct's records for PubMed 31515488.

The chains are these.
B1: Isoform 1 of Myotubularin-related protein 9 (Homo sapiens), Q96QG7-1 (parent)
chain: MEFAELIKTPRVDNVVLHRPFYPAVEGTLCLTGHHLILSSRQDNTEELWLLHSNIDAIDKRFVGSLGTIIIKCKDFRIIQLDIPGMEECLNIASSIEALSTLDSITLMYPFFYRPMFEVIEDGWHSFLPEQEFELYSSATSEWRLSYVNKEFAVCPSYPPIVTVPKSIDDEALRKVATFRHGGRFPVLSYYHKKNGMVIMRSGQPLTGTNGRRCKEDEKLINATLRAGKRGYIIDTRSLNVAQQTRAKGGGFEQEAHYPQWRRIHKSIERYHILQESLIKLVEACNDQTHNMDRWLSKLEASNWLTHIKEILTTACLAAQCIDREGASILIHGTEGTDSTLQVTSLAQIILEPRSRTIRGFEALIEREWLQAGHPFQQRCAQSAYCNTKQKWEAPVFLLFLDCVWQILRQFPCSFEFNENFLIMLFEHAYASQFGTFLGNNESERCKLKLQQKTMSLWSWVNQPSELSKFTNPLFEANNLVIWPSVAPQSLPLWEGIFLRWNRSSKYLDEAYEEMVNIIEYNKELQAKVNILRRQLAELETEDGMQESP
partner: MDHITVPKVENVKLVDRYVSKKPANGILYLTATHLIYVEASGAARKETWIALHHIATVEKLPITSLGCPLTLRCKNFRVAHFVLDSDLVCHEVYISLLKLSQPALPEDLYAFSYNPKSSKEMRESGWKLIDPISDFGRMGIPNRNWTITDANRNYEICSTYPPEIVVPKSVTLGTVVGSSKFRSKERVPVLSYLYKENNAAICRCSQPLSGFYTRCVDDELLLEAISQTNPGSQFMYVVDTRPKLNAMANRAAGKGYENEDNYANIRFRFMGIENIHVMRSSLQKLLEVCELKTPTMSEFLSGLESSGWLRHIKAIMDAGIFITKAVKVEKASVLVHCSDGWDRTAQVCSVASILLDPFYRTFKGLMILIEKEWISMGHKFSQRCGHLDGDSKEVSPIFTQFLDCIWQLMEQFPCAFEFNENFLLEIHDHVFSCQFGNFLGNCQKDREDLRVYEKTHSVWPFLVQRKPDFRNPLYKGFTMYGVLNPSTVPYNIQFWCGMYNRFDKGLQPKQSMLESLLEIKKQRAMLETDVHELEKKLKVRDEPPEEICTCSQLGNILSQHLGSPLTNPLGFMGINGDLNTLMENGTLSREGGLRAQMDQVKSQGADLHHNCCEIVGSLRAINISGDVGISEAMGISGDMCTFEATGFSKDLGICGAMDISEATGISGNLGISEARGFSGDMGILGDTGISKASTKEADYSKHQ
B2: Vesicle transport through interaction with t-SNAREs homolog 1B (Homo sapiens), Q9UEU0 (parent)
chain: MASSAASSEHFEKLHEIFRGLHEDLQGVPERLLGTAGTEEKKKLIRDFDEKQQEANETLAEMEEELRYAPLSFRNPMMSKLRNYRKDLAKLHREVRSTPLTATPGGRGDMKYGIYAVENEHMNRLQSQRAMLLQGTESLNRATQSIERSHRIATETDQIGSEIIEELGEQRDQLERTKSRLVNTSENLSKSRKILRSMSRKVTTNKLLLSIIILLELAILGGLVYYKFFRSH
partner: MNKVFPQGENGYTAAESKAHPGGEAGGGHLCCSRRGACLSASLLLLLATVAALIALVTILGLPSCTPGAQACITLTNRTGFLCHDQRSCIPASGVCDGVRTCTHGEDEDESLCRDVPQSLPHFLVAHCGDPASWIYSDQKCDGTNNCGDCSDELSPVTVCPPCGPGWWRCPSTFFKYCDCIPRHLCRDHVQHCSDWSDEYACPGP
B3: Syntenin-2 (Homo sapiens), Q9H190 (parent)
chain: MSSLYPSLEDLKVDQAIQAQVRASPKMPALPVQATAISPPPVLYPNLAELENYMGLSLSSQEVQESLLQIPEGDSTAVSGPGPGQMVAPVTGYSLGVRRAEIKPGVREIHLCKDERGKTGLRLRKVDQGLFVQLVQANTPASLVGLRFGDQLLQIDGRDCAGWSSHKAHQVVKKASGDKIVVVVRDRPFQRTVTMHKDSMGHVGFVIKKGKIVSLVKGSSAARNGLLTNHYVCEVDGQNVIGLKDKKIMEILATAGNVVTLTIIPSVIYEHMVKKLPPVLLHHTMDHSIPDA
partner: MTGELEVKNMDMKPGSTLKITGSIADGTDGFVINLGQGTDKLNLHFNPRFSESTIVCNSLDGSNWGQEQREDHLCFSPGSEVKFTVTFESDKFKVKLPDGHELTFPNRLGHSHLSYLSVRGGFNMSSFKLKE
B4: Nebulette (Homo sapiens), O76041 (parent)
chain: MRVPVFEDIKDETEEEKIGEEENEEDQVFYKPVIEDLSMELARKCTELISDIRYKEEFKKSKDKCTFVTDSPMLNHVKNIGAFISEAKYKGTIKADLSNSLYKRMPATIDSVFAGEVTQLQSEVAYKQKHDAAKGFSDYAHMKEPPEVKHAMEVNKHQSNISYRKDVQDTHTYSAELDRPDIKMATQISKIISNAEYKKGQGIMNKEPAVIGRPDFEHAVEASKLSSQIKYKEKFDNEMKDKKHHYNPLESASFRQNQLAATLASNVKYKKDIQNMHDPVSDLPNLLFLDHVLKASKMLSGREYKKLFEENKGMYHFDADAVEHLHHKGNAVLQSQVKYKEEYEKNKGKPMLEFVETPSYQASKEAQKMQSEKVYKEDFEKEIKGRSSLDLDKTPEFLHVKYITNLLREKEYKKDLENEIKGKGMELNSEVLDIQRAKRASEMASEKEYKKDLESIIKGKGMQAGTDTLEMQHAKKAAEIASEKDYKRDLETEIKGKGMQVSTDTLDVQRAKKASEMASQKQYKKDLENEIKGKGMQVSMDIPDILRAKRTSEIYSQRKYKDEAEKMLSNYSTIADTPEIQRIKTTQQNISAVFYKKEVGAGTAVKDSPEIERVKKNQQNISSVKYKEEIKHATAISDPPELKRVKENQKNISNLQYKEQNYKATPVSMTPEIERVRRNQEQLSAVKYKGELQRGTAISDPPELKRAKENQKNISNVYYRGQLGRATTLSVTPEMERVKKNQENISSVKYTQDHKQMKGRPSLILDTPAMRHVKEAQNHISMVKYHEDFEKTKGRGFTPVVDDPVTERVRKNTQVVSDAAYKGVHPHIVEMDRRPGIIVDLKVWRTDPGSIFDLDPLEDNIQSRSLHMLSEKASHYRRHWSRSHSSSTFGTGLGDDRSEISEIYPSFSCCSEVTRPSDEGAPVLPGAYQQSHSQGYGYMHQTSVSSMRSMQHSPNLRTYRAMYDYSAQDEDEVSFRDGDYIVNVQPIDDGWMYGTVQRTGRTGMLPANYIEFVN
partner: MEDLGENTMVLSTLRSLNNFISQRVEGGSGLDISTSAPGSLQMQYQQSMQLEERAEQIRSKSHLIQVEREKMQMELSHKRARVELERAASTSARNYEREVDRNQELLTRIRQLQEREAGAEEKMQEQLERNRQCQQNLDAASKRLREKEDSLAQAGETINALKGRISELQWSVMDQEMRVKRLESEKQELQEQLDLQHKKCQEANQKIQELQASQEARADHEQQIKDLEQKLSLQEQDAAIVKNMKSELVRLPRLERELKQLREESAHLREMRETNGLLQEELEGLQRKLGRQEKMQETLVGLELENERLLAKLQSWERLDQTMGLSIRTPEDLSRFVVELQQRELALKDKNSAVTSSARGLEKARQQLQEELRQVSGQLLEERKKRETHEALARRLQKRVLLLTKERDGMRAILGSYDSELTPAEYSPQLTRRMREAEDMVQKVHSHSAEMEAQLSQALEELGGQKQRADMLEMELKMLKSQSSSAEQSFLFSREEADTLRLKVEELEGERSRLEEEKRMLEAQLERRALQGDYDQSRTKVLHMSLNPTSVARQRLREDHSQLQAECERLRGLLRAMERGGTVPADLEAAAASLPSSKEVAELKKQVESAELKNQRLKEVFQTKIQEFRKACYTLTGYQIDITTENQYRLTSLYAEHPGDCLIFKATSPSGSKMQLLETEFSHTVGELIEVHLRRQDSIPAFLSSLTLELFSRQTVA
B5: Transcription factor 19 (Homo sapiens), Q9Y242 (parent)
chain: MLPCFQLLRIGGGRGGDLYTFHPPAGAGCTYRLGHRADLCDVALRPQQEPGLISGIHAELHAEPRGDDWRVSLEDHSSQGTLVNNVRLPRGHRLELSDGDLLTFGPEGPPGTSPSEFYFMFQQVRVKPQDFAAITIPRSRGEARVGAGFRPMLPSQGAPQRPLSTFSPAPKATLILNSIGSLSKLRPQPLTFSPSWGGPKSLPVPAPPGEMGTTPSAPPQRNRRKSVHRVLAELDDESEPPENPPPVLMEPRKKLRVDKAPLTPTGNRRGRPRKYPVSAPMAPPAVGGGEPCAAPCCCLPQEETVAWVQCDGCDVWFHVACVGCSIQAAREADFRCPGCRAGIQT
B6: Zinc finger protein Aiolos (Homo sapiens), Q9UKT9 (parent)
chain: MEDIQTNAELKSTQEQSVPAESAAVLNDYSLTKSHEMENVDSGEGPANEDEDIGDDSMKVKDEYSERDENVLKSEPMGNAEEPEIPYSYSREYNEYENIKLERHVVSFDSSRPTSGKMNCDVCGLSCISFNVLMVHKRSHTGERPFQCNQCGASFTQKGNLLRHIKLHTGEKPFKCHLCNYACQRRDALTGHLRTHSVEKPYKCEFCGRSYKQRSSLEEHKERCRTFLQSTDPGDTASAEARHIKAEMGSERALVLDRLASNVAKRKSSMPQKFIGEKRHCFDVNYNSSYMYEKESELIQTRMMDQAINNAISYLGAEALRPLVQTPPAPTSEMVPVISSMYPIALTRAEMSNGAPQELEKKSIHLPEKSVPSERGLSPNNSGHDSTDTDSNHEERQNHIYQQNHMVLSRARNGMPLLKEVPRSYELLKPPPICPRDSVKVINKEGEVMDVYRCDHCRVLFLDYVMFTIHMGCHGFRDPFECNMCGYRSHDRYEFSSHIARGEHRALLK
partner: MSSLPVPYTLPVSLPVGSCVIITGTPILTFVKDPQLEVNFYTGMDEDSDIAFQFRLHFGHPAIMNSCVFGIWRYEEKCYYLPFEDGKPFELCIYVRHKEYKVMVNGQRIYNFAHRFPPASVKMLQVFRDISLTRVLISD
B7: Tuftelin-interacting protein 11 (Homo sapiens), Q9UBB9 (parent)
chain: MSLSHLYRDGEGRIDDDDDERENFEITDWDLQNEFNPNRQRHWQTKEEATYGVWAERDSDDERPSFGGKRARDYSAPVNFISAGLKKGAAEEAELEDSDDEEKPVKQDDFPKDFGPRKLKTGGNFKPSQKGFAGGTKSFMDFGSWERHTKGIGQKLLQKMGYVPGRGLGKNAQGIINPIEAKQRKGKGAVGAYGSERTTQSMQDFPVVDSEEEAEEEFQKELSQWRKDPSGSKKKPKYSYKTVEELKAKGRISKKLTAPQKELSQVKVIDMTGREQKVYYSYSQISHKHNVPDDGLPLQSQQLPQSGKEAKAPGFALPELEHNLQLLIDLTEQEIIQNDRQLQYERDMVVNLFHELEKMTEVLDHEERVISNLSKVLEMVEECERRMQPDCSNPLTLDECARIFETLQDKYYEEYRMSDRVDLAVAIVYPLMKEYFKEWDPLKDCTYGTEIISKWKSLLENDQLLSHGGQDLSADAFHRLIWEVWMPFVRNIVTQWQPRNCDPMVDFLDSWVHIIPVWILDNILDQLIFPKLQKEVENWNPLTDTVPIHSWIHPWLPLMQARLEPLYSPIRSKLSSALQKWHPSDSSAKLILQPWKDVFTPGSWEAFMVKNIVPKLGMCLGELVINPHQQHMDAFYWVIDWEGMISVSSLVGLLEKHFFPKWLQVLCSWLSNSPNYEEITKWYLGWKSMFSDQVLAHPSVKDKFNEALDIMNRAVSSNVGAYMQPGARENIAYLTHTERRKDFQYEAMQERREAENMAQRGIGVAASSVPMNFKDLIETKAEEHNIVFMPVIGKRHEGKQLYTFGRIVIYIDRGVVFVQGEKTWVPTSLQSLIDMAK
partner: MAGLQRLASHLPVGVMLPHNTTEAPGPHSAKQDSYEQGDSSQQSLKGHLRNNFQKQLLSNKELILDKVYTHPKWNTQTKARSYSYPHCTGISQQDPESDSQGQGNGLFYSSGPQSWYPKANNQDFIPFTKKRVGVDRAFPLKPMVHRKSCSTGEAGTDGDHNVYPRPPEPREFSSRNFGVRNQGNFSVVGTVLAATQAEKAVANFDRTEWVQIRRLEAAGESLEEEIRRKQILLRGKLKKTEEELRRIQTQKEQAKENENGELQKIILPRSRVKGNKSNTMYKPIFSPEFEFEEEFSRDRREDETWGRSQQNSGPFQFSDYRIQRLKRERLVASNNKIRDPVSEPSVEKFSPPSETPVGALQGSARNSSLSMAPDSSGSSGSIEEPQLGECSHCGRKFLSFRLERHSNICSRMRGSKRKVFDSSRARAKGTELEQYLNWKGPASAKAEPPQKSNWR

Variants of B1 are the subject of the first assay. Particulars: with mtmr8_human MTMR8, Q96EF0.
For the variant F127I, the “effect of a mutation on the interaction” value was “with no effect”.

In another assay the parent is B2. To be noted: with lrad1_human LDLRAD1, Q5T700.
In the case of R124Q, the “effect of a mutation on the interaction” value is listed as “with no effect”.

As to R176H, the “effect of a mutation on the interaction” value is on record as “with no effect”.

In another assay the parent is B3. Particulars: with leg2_human LGALS2, P05162.
On to R223C, for which the “effect of a mutation on the interaction” value is given as “disrupting interaction strength”.

A further assay covers variants of B4. To be noted: with md1l1_human MAD1L1, Q9Y6D9.
Take R613Q: the “effect of a mutation on the interaction” value was “with no effect”.

M351V: the “effect of a mutation on the interaction” value is “with no effect”.

The variants in the next assay derive from B5. Particulars: with dnja3_human DNAJA3, Q96EY1.
dnja3_human DNAJA3, Q96EY1, sequence (Q96EY1 whole entry): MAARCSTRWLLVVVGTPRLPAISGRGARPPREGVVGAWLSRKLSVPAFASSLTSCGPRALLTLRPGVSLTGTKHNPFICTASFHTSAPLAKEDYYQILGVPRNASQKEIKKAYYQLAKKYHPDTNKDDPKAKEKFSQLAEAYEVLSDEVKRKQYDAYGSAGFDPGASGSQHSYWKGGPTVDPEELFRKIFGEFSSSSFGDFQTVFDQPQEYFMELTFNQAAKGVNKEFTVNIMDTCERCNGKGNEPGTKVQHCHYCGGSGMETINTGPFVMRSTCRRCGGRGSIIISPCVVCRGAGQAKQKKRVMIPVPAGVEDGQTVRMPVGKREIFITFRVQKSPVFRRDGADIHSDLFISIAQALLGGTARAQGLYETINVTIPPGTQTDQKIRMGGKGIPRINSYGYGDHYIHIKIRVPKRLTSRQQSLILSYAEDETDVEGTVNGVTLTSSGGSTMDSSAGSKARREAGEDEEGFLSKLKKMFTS
With A279V, the “effect of a mutation on the interaction” value is listed as “with no effect”.

The variants in a further assay derive from B6. To be noted: with ppl13_human LGALS14, Q8TCE9.
For N119D, the “effect of a mutation on the interaction” value is on record as “with no effect”.

Consider A24V, for which the “effect of a mutation on the interaction” value is recorded as “with no effect”.

A further assay covers variants of B7. To be noted: with zc21c_human ZC2HC1C.
As to R8Q, the “effect of a mutation on the interaction” value is reported as “with no effect”.

For S688L, the “effect of a mutation on the interaction” value is on record as “with no effect”.
